In the supplement of paper PMC9112550, “Optimization of the antimicrobial peptide Bac7 by deep mutational scanning” (BMC Biology, 2022):

Each sequence was assayed on Escherichia coli TOP10 (assay: shrunken log2 fold change of peptide-encoding DNA abundance (4.5 h post-induction vs induction); higher = less antimicrobial activity (less host growth inhibition)). Conditions: time post-induction: 4.5 h; library: site-saturation at positions 5, 18, 19, 20.
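Further: peptides expressed intracellularly from a pBAD plasmid library in pooled LB shake-flask culture, induced with 0.3% L-arabinose, DNA abundance read by NGS, three biological replicates, DESeq2 with apeglm shrinkage.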

For RRIRRRPPRLPRPRPRPVPLPRP, which “shrunken log2 fold change” value is on record?
Its value is 0.385.

With RRIRCRPPRLPRPRPRPRNCPRP as the sequence, how does the “shrunken log2 fold change” value read?
Its value is -0.288.

Which “shrunken log2 fold change” value does the source give for RRIRERPPRLPRPRPRPSVGPRP here?
Its value is 0.0861.

With RRIRVRPPRLPRPRPRPNPIPRP as the sequence, how does the “shrunken log2 fold change” value read?
Its value is 0.129.

For RRIRKRPPRLPRPRPRPFKLPRP, which “shrunken log2 fold change” value is on record?
The value was 0.0306.

Which “shrunken log2 fold change” value does the source give for RRIRNRPPRLPRPRPRPEDWPRP here?
Its value is -0.0232.

For RRIRYRPPRLPRPRPRPTRNPRP, which “shrunken log2 fold change” value is on record?
The value was -0.404.

How did the “shrunken log2 fold change” value turn out when RRIRMRPPRLPRPRPRPLKAPRP was run?
The value was 0.541.

RRIRHRPPRLPRPRPRPPSTPRP was tested. Which “shrunken log2 fold change” value did it give?
Its value is -0.0909.

Which “shrunken log2 fold change” value does the source give for RRIRFRPPRLPRPRPRPFIAPRP here?
The value was -0.489.

Which “shrunken log2 fold change” value does the source give for RRIRYRPPRLPRPRPRPWQSPRP here?
Its value is -0.121.

Which “shrunken log2 fold change” value does the source give for RRIRHRPPRLPRPRPRPVMNPRP here?
Its value is -0.0175.

With RRIRERPPRLPRPRPRPGMTPRP as the sequence, how does the “shrunken log2 fold change” value read?
Its value is -0.324.

How did the “shrunken log2 fold change” value turn out when RRIRLRPPRLPRPRPRPMQGPRP was run?
Its value is -0.0711.

With RRIRTRPPRLPRPRPRPKYGPRP as the sequence, how does the “shrunken log2 fold change” value read?
The value was -0.0738.

How did the “shrunken log2 fold change” value turn out when RRIRFRPPRLPRPRPRPECQPRP was run?
Its value is -0.0729.

How did the “shrunken log2 fold change” value turn out when RRIRYRPPRLPRPRPRPKRMPRP was run?
The value was -0.207.

With RRIRRRPPRLPRPRPRPDFDPRP as the sequence, how does the “shrunken log2 fold change” value read?
The value was 0.291.

Which “shrunken log2 fold change” value does the source give for RRIRIRPPRLPRPRPRPWKMPRP here?
The value was -1.13.

With RRIRTRPPRLPRPRPRPSTMPRP as the sequence, how does the “shrunken log2 fold change” value read?
The value was -0.669.

Which “shrunken log2 fold change” value does the source give for RRIRIRPPRLPRPRPRPGADPRP here?
The value was -0.193.

With RRIRQRPPRLPRPRPRPPTAPRP as the sequence, how does the “shrunken log2 fold change” value read?
Its value is 0.504.

For RRIRIRPPRLPRPRPRPHVVPRP, which “shrunken log2 fold change” value is on record?
Its value is -0.0217.

Which “shrunken log2 fold change” value does the source give for RRIRDRPPRLPRPRPRPPMRPRP here?
The value was 0.759.

How did the “shrunken log2 fold change” value turn out when RRIRLRPPRLPRPRPRPGENPRP was run?
Its value is -0.00192.

For RRIRCRPPRLPRPRPRPINAPRP, which “shrunken log2 fold change” value is on record?
The value was 0.695.

For RRIRCRPPRLPRPRPRPGCIPRP, which “shrunken log2 fold change” value is on record?
Its value is -0.385.

RRIRIRPPRLPRPRPRPMMIPRP was tested. Which “shrunken log2 fold change” value did it give?
The value was -0.0366.

With RRIRKRPPRLPRPRPRPTSPPRP as the sequence, how does the “shrunken log2 fold change” value read?
The value was 0.15.

For RRIRNRPPRLPRPRPRPKLRPRP, which “shrunken log2 fold change” value is on record?
The value was 0.00281.

Which “shrunken log2 fold change” value does the source give for RRIRCRPPRLPRPRPRPNVCPRP here?
The value was -0.00167.

How did the “shrunken log2 fold change” value turn out when RRIRDRPPRLPRPRPRPITQPRP was run?
The value was 0.000804.

With RRIRTRPPRLPRPRPRPDHVPRP as the sequence, how does the “shrunken log2 fold change” value read?
The value was -0.0634.

With RRIRFRPPRLPRPRPRPLWWPRP as the sequence, how does the “shrunken log2 fold change” value read?
The value was 0.172.

With RRIRCRPPRLPRPRPRPDPMPRP as the sequence, how does the “shrunken log2 fold change” value read?
The value was 0.00263.

RRIRMRPPRLPRPRPRPPRSPRP was tested. Which “shrunken log2 fold change” value did it give?
The value was 1.6.

RRIRWRPPRLPRPRPRPEHFPRP was tested. Which “shrunken log2 fold change” value did it give?
Its value is 0.00426.

With RRIRNRPPRLPRPRPRPDPNPRP as the sequence, how does the “shrunken log2 fold change” value read?
Its value is -0.488.

Which “shrunken log2 fold change” value does the source give for RRIRVRPPRLPRPRPRPYTYPRP here?
The value was 0.128.

For RRIRKRPPRLPRPRPRPWVYPRP, which “shrunken log2 fold change” value is on record?
Its value is 0.107.

RRIRRRPPRLPRPRPRPGRRPRP was tested. Which “shrunken log2 fold change” value did it give?
The value was 0.456.

How did the “shrunken log2 fold change” value turn out when RRIRRRPPRLPRPRPRPIKRPRP was run?
The value was 0.156.

How did the “shrunken log2 fold change” value turn out when RRIRPRPPRLPRPRPRPDYYPRP was run?
Its value is -0.346.

How did the “shrunken log2 fold change” value turn out when RRIRYRPPRLPRPRPRPCGMPRP was run?
The value was -0.217.

Which “shrunken log2 fold change” value does the source give for RRIRKRPPRLPRPRPRPVFFPRP here?
The value was 0.341.

With RRIRRRPPRLPRPRPRPMSHPRP as the sequence, how does the “shrunken log2 fold change” value read?
The value was 0.142.

Which “shrunken log2 fold change” value does the source give for RRIRRRPPRLPRPRPRPLEPPRP here?
The value was 0.582.

RRIRYRPPRLPRPRPRPMLQPRP was tested. Which “shrunken log2 fold change” value did it give?
Its value is -0.229.

With RRIRLRPPRLPRPRPRPLDDPRP as the sequence, how does the “shrunken log2 fold change” value read?
The value was -0.144.

How did the “shrunken log2 fold change” value turn out when RRIRDRPPRLPRPRPRPTQFPRP was run?
The value was 0.216.

RRIRARPPRLPRPRPRPNNMPRP was tested. Which “shrunken log2 fold change” value did it give?
The value was -0.516.

For RRIRFRPPRLPRPRPRPATLPRP, which “shrunken log2 fold change” value is on record?
Its value is -0.159.

Which “shrunken log2 fold change” value does the source give for RRIRRRPPRLPRPRPRPWQDPRP here?
Its value is 0.0293.

RRIRVRPPRLPRPRPRPSFMPRP was tested. Which “shrunken log2 fold change” value did it give?
The value was -0.384.

How did the “shrunken log2 fold change” value turn out when RRIRYRPPRLPRPRPRPSQEPRP was run?
Its value is -0.748.

RRIRTRPPRLPRPRPRPGLCPRP was tested. Which “shrunken log2 fold change” value did it give?
Its value is -0.00367.

For RRIRMRPPRLPRPRPRPWITPRP, which “shrunken log2 fold change” value is on record?
The value was -0.00122.

For RRIRNRPPRLPRPRPRPTLHPRP, which “shrunken log2 fold change” value is on record?
Its value is -0.0665.

How did the “shrunken log2 fold change” value turn out when RRIRNRPPRLPRPRPRPEVAPRP was run?
Its value is 0.418.

RRIRERPPRLPRPRPRPVTAPRP was tested. Which “shrunken log2 fold change” value did it give?
The value was -0.00991.

RRIRPRPPRLPRPRPRPNWAPRP was tested. Which “shrunken log2 fold change” value did it give?
The value was 0.176.

For RRIRIRPPRLPRPRPRPHKQPRP, which “shrunken log2 fold change” value is on record?
The value was -0.0164.

How did the “shrunken log2 fold change” value turn out when RRIRMRPPRLPRPRPRPWDMPRP was run?
Its value is 0.00416.

How did the “shrunken log2 fold change” value turn out when RRIRYRPPRLPRPRPRPYFEPRP was run?
Its value is -0.58.

Which “shrunken log2 fold change” value does the source give for RRIRKRPPRLPRPRPRPSYRPRP here?
Its value is 0.0249.

With RRIRMRPPRLPRPRPRPMDAPRP as the sequence, how does the “shrunken log2 fold change” value read?
Its value is 0.781.

RRIRERPPRLPRPRPRPFEPPRP was tested. Which “shrunken log2 fold change” value did it give?
Its value is -0.195.

Which “shrunken log2 fold change” value does the source give for RRIRTRPPRLPRPRPRPLQVPRP here?
The value was -0.219.

With RRIRGRPPRLPRPRPRPGPYPRP as the sequence, how does the “shrunken log2 fold change” value read?
The value was 0.324.

For RRIRRRPPRLPRPRPRPPYDPRP, which “shrunken log2 fold change” value is on record?
Its value is 0.213.

RRIRYRPPRLPRPRPRPALEPRP was tested. Which “shrunken log2 fold change” value did it give?
The value was -0.486.

Which “shrunken log2 fold change” value does the source give for RRIRFRPPRLPRPRPRPERTPRP here?
Its value is -0.0923.

Which “shrunken log2 fold change” value does the source give for RRIRPRPPRLPRPRPRPDGTPRP here?
The value was -0.122.

With RRIRLRPPRLPRPRPRPWVHPRP as the sequence, how does the “shrunken log2 fold change” value read?
Its value is -0.3.

Which “shrunken log2 fold change” value does the source give for RRIRARPPRLPRPRPRPVMYPRP here?
Its value is 0.0749.
